“And” between values parts separate entries of the source, which are not always exact repeats. Identical values can stand only once.
Assays:
[1] = molecular target: wild type full length human Hsp90β with non-cleavable His6-tag (human); experiment: SEC-MALS; SEC-MALLS on Superdex 200, 0.35 ml/min, 25 mM Na-phosphate pH 7.2, 150 mM NaCl, 5 mM DTT; 10 ul of ~29 g/l loaded; legend: 2.2 uM monomer concentration
[2] = molecular target: wild type full length human Hsp90β with non-cleavable His6-tag (human); experiment: AUC; sedimentation at 42,000 rpm, 20°C, 16 hours, 7.2 uM Hsp90 in 25 Na-phosphate pH 7.2, 150 mM NaCl, 150 mM KCl, 5 mM DTT, protease inhibitor; absorbance optics; SedFit

stoichiometry N [1]: 2
stoichiometry N [2]: 2 and 4
Substance: wild type full length human Hsp90β with non-cleavable His6-tag (natural protein; other documents disagree on this pair)

Reference: article PMC5484490
